Reference: patent US20240166765A1 (ICONIC THERAPEUTICS, published 2024)
Positions count from the first letter of the chain named.

Columns and labels:
[1] = target: T1, human Tissue Factor (hTF), endogenously expressed on human TF-positive cells (human, UniProt P13726 33-295); assay: flow cytometry competition on A431 cells, 100 nM unlabelled antibody, competitor 20 nM 43Ea-Alexa488
T1 construct: also called CD142

[2] = target: T2, Expi293-derived human TF ECD-His6 (TF-His) (human, UniProt P13726 33-251); assay: protein ELISA, plate coated with Expi293-derived TF-His
T2 construct: Glycosylated TF ECD-His6 made in Expi293 cells and coated on ELISA plates; also called Expi293-derived TF protein

[3] = target: T3, Macaca mulatta TF on RF/6A cells (Macaca mulatta, UniProt P13726 33-294 (human entry)); assay: flow cytometry on Macaca mulatta RF/6A cells
T3 construct: also called TF-positive Macaca mulatta RF/6A cells; cynomolgus TF (cTF)
T3 chain: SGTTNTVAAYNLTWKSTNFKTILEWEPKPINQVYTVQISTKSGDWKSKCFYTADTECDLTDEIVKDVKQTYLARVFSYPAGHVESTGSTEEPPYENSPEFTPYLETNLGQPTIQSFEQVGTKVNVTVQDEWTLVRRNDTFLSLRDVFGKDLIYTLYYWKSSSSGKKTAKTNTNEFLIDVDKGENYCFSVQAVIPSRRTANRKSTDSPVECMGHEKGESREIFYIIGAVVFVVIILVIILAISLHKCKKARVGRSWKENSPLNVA

[4] = target: T4, E. coli-derived TF ECD-His6 (Homo sapiens (Human), UniProt P13726 33-251); assay: protein ELISA, plate coated with E. coli-derived TF-His
T4 construct: The OmpA signal is not part of that entry; also called E.coli-derived TF protein; E. coli-derived TF-His

[5] = target: T1, human Tissue Factor (hTF), endogenously …; assay: cell-based or functional assay
[6] = target: T1, human Tissue Factor (hTF), endogenously …; assay: flow cytometry competition on A431 cells, 100 nM unlabelled antibody, competitor 20 nM 25A-Alexa488
[7] = target: T5, human Tissue Factor on MDA-MB-231 cells (human, UniProt P13726 33-295); assay: flow cytometry, MDA-MB-231 cells; binding of 20 nM FVII-Fc-Alexa488 (competitor) left at 28 nM Ab
T5 construct: also called TF; hTF

[8] = target: T5, human Tissue Factor on MDA-MB-231 cells; assay: flow cytometry, MDA-MB-231 cells; binding of 20 nM FVII-Fc-Alexa488 (competitor) left at 9.25 nM Ab
[9] = target: T5, human Tissue Factor on MDA-MB-231 cells; assay: flow cytometry, MDA-MB-231 cells; binding of 20 nM FVII-Fc-Alexa488 (competitor) left at 83 nM Ab
[10] = target: T5, human Tissue Factor on MDA-MB-231 cells; assay: flow cytometry, MDA-MB-231 cells; binding of 20 nM FVII-Fc-Alexa488 (competitor) left at 250 nM Ab
[11] = target: T5, human Tissue Factor on MDA-MB-231 cells; assay: cell-based or functional assay
Relipidated TF = Relipidated TF (UniProt P13726 33-295, limits assumed); assay: cell-based or functional assay

B1: anti-TF antibody 54E (antibody, human IgG1, V domains shown)
VH: QVQLVQSGAEVKKPGASVKVSCKASGYTFANYYMHWVRQAPGQGLEWMGIINPSGGITVYAQKFQGRVTMTRDTSTSTVYMELSSLRSEDTAVYYCARGGSKVAALAFDIWGQGTMVTVSS
VL: DIQMTQSPSSLSASVGDRVTITCQASQDISNSLNWYQQKPGKAPKLLIYDASNLETGVPSRFSGSRSGTDFTFTISSLQPEDIATYYCQQYNFHPLTFGGGTKVEIK
notes: Human IgG1
% 43Ea binding [1]: 96%
EC50 [2]: 0.96 nM
EC50 [3]: 1.28 nM
EC50 [4]: 0.38 nM
% GM-CSF, 2.56 nM antibody, MDA-MB-231 cells + FVIIa [5]: 38%
% GM-CSF, 6.4 nM antibody, MDA-MB-231 cells + FVIIa [5]: 10%
% GM-CSF, 16 nM antibody, MDA-MB-231 cells + FVIIa [5]: 5%
% GM-CSF, 40 nM antibody, MDA-MB-231 cells + FVIIa [5]: 5%
% GM-CSF, 100 nM antibody, MDA-MB-231 cells + FVIIa [5]: 5%
% 25A binding [6]: 99%

B2: 39A (antibody, V domains shown)
VH: QVQLVQSGAEVKKPGSSVKVSCKASGGTFSSNAIGWVRQAPGQGLEWMGSIIPIIGFANYAQKFQGRVTITADESTSTAYMELSSLRSEDTAVYYCARDSGYYYGASSFGMDVWGQGTTVTVSS
VL: EIVMTQSPATLSVSPGERATLSCRASQSVSSNLAWYQQKPGQAPRLLIYGASTRATGIPARFSGSGSGTEFTLTISSLQSEDFAVYYCEQYNNLPLTFGGGTKVEIK
notes: Human anti-TF IgG1
% FVIIa [7]: 2%
% FVIIa [8]: 2%
% FVIIa [9]: 2%
% FVIIa [10]: 2%
% IL8, 2.56 nM Ab [11]: 52%
% IL8, 6.4 nM Ab [11]: 6%
% IL8, 16 nM Ab [11]: 2%
% IL8, 40 nM Ab [11]: 2%
% IL8, 100 nM Ab [11]: 3%
TGA % ETP, 10 nM Ab, 10 min pre-incubation (Relipidated TF): 28%
TGA % ETP, 50 nM Ab, 10 min pre-incubation (Relipidated TF): 20%
TGA % Peak IIa, 10 nM Ab, 10 min pre-incubation (Relipidated TF): 9%
TGA % Peak IIa, 50 nM Ab, 10 min pre-incubation (Relipidated TF): 7%
TGA % Peak IIa, 100 nM Ab, 10 min pre-incubation (Relipidated TF): 7%
TGA ETP, 10 nM Ab, 10 min pre-incubation (Relipidated TF): 482 nM·min
TGA ETP, 50 nM Ab, 10 min pre-incubation (Relipidated TF): 346 nM·min
TGA Lag Time, 10 nM Ab, 10 min pre-incubation (Relipidated TF): 20.8 min
TGA Lag Time, 50 nM Ab, 10 min pre-incubation (Relipidated TF): 28.4 min
TGA Lag Time, 100 nM Ab, 10 min pre-incubation (Relipidated TF): 28 min
TGA Peak IIa, 10 nM Ab, 10 min pre-incubation (Relipidated TF): 25 nM
TGA Peak IIa, 50 nM Ab, 10 min pre-incubation (Relipidated TF): 17 nM
TGA Peak IIa, 100 nM Ab, 10 min pre-incubation (Relipidated TF): 17 nM
TGA ttPeak, 10 nM Ab, 10 min pre-incubation (Relipidated TF): 30.7 min
TGA ttPeak, 50 nM Ab, 10 min pre-incubation (Relipidated TF): 38.9 min
TGA ttPeak, 100 nM Ab, 10 min pre-incubation (Relipidated TF): 40.2 min

B3: anti-TF antibody 39A (antibody, human IgG1, V domains shown)
VH: B2 VH
VL: B2 VL
notes: Human IgG1
EC50 [2]: 0.45 nM
EC50 [3]: 0.27 nM
EC50 [4]: 0.34 nM
% GM-CSF, 2.56 nM antibody, MDA-MB-231 cells + FVIIa [5]: 42%
% GM-CSF, 6.4 nM antibody, MDA-MB-231 cells + FVIIa [5]: 8%
% GM-CSF, 16 nM antibody, MDA-MB-231 cells + FVIIa [5]: 5%
% GM-CSF, 40 nM antibody, MDA-MB-231 cells + FVIIa [5]: 5%
% GM-CSF, 100 nM antibody, MDA-MB-231 cells + FVIIa [5]: 7%
% 25A binding [6]: 99%

B4: anti-TF antibody 25A (antibody, human IgG1, V domains shown)
VH: QVQLVQSGAEVKKPGASVKVSCKASGYTFDVYGISWVRQAPGQGLEWMGWIAPYNGNTNYAQKLQGRVTMTTDTSTSTAYMELRSLRSDDTAVYYCARDAGTYSPFGYGMDVWGQGTTVTVSS
VL: DIQMTQSPSTLSASVGDRVTITCRASQSISSWLAWYQQKPGKAPKLLIYKASSLESGVPSRFSGSGSGTEFTLTISSLQPDDFATYYCQQFQSLPPFTFGGGTKVEIK
notes: Human IgG1
% 43Ea binding [1]: 1%
EC50 [2]: 0.54 nM
EC50 [3]: 0.43 nM
EC50 [4]: 0.35 nM
% GM-CSF, 2.56 nM antibody, MDA-MB-231 cells + FVIIa [5]: 57%
% GM-CSF, 6.4 nM antibody, MDA-MB-231 cells + FVIIa [5]: 24%
% GM-CSF, 16 nM antibody, MDA-MB-231 cells + FVIIa [5]: 22%
% GM-CSF, 40 nM antibody, MDA-MB-231 cells + FVIIa [5]: 19%
% GM-CSF, 100 nM antibody, MDA-MB-231 cells + FVIIa [5]: 22%
% 25A binding [6]: 3%

B5: anti-TF antibody 25A3 (antibody, human IgG1, kappa, V domains shown)
VH: B4 VH with N55S
VL: DIQMTQSPSTLSASVGDRVTITCQASQSINNWLAWYQQKPGKAPKLLIYKAYNLESGVPSRFSGSGSGTEFTLTISSLQPDDFATYYCQLFQSLPPFTFGGGTKVEIKR
notes: Human IgG1
EC50 [2]: 0.47 nM
EC50 [3]: 0.27 nM
EC50 [4]: 0.36 nM

B6: anti-TF antibody 25G (antibody, human IgG1, kappa, V domains shown)
VH: B4 VH with D30R, V31S, I51V, F106Y
VL: B5 VL with Q24R, N30S, N31S, Y52S, N53S, L90Q
notes: Human IgG1
% 43Ea binding [1]: 3%
% GM-CSF, 2.56 nM antibody, MDA-MB-231 cells + FVIIa [5]: 77%
% GM-CSF, 6.4 nM antibody, MDA-MB-231 cells + FVIIa [5]: 39%
% GM-CSF, 16 nM antibody, MDA-MB-231 cells + FVIIa [5]: 32%
% GM-CSF, 40 nM antibody, MDA-MB-231 cells + FVIIa [5]: 18%
% GM-CSF, 100 nM antibody, MDA-MB-231 cells + FVIIa [5]: 19%
% 25A binding [6]: 7%

B7: anti-TF antibody 25G1 (antibody, human IgG1, kappa, V domains shown)
VH: B4 VH with D30R, V31S, I51V, N55S, F106Y
VL: B5 VL with Q24R, Q27H, N30D, N31S, Y52S, N53Y
notes: Human IgG1
EC50 [2]: 0.42 nM
EC50 [3]: 0.27 nM
EC50 [4]: 0.31 nM
% GM-CSF, 2.56 nM antibody, MDA-MB-231 cells + FVIIa [5]: 48%

B8: 1F (antibody, V domains shown)
VH: EVQLLESGGGLVQPGGSLRLSCAASGFTFSDYAMGWVRQAPGKGLEWVSTISGSGGLTYYADSVKGRFTISRDNSKNTLYLQMNSLRAEDTAVYYCAKAPYGYYMDVWGKGTTVTVSS
VL: not shown
notes: Human anti-TF IgG1
% FVIIa [7]: 7%
% FVIIa [8]: 7%
% FVIIa [9]: 7%
% FVIIa [10]: 6%
% IL8, 2.56 nM Ab [11]: 18%
% IL8, 6.4 nM Ab [11]: 3%
% IL8, 16 nM Ab [11]: 2%
% IL8, 40 nM Ab [11]: 2%
% IL8, 100 nM Ab [11]: 2%
TGA % ETP, 10 nM Ab, 10 min pre-incubation (Relipidated TF): 31%
TGA % Peak IIa, 10 nM Ab, 10 min pre-incubation (Relipidated TF): 10%
TGA % Peak IIa, 50 nM Ab, 10 min pre-incubation (Relipidated TF): 7%
TGA % Peak IIa, 100 nM Ab, 10 min pre-incubation (Relipidated TF): 7%
TGA ETP, 10 nM Ab, 10 min pre-incubation (Relipidated TF): 540 nM·min
TGA Lag Time, 10 nM Ab, 10 min pre-incubation (Relipidated TF): 18.8 min
TGA Lag Time, 50 nM Ab, 10 min pre-incubation (Relipidated TF): 27.6 min
TGA Lag Time, 100 nM Ab, 10 min pre-incubation (Relipidated TF): 30.3 min
TGA Peak IIa, 10 nM Ab, 10 min pre-incubation (Relipidated TF): 27 nM
TGA Peak IIa, 50 nM Ab, 10 min pre-incubation (Relipidated TF): 20 nM
TGA Peak IIa, 100 nM Ab, 10 min pre-incubation (Relipidated TF): 17 nM
TGA ttPeak, 10 nM Ab, 10 min pre-incubation (Relipidated TF): 28.6 min
TGA ttPeak, 50 nM Ab, 10 min pre-incubation (Relipidated TF): 38.9 min
TGA ttPeak, 100 nM Ab, 10 min pre-incubation (Relipidated TF): 42 min

B9: anti-TF antibody 1F (antibody, human IgG1, V domains shown)
VH: B8 VH
VL: not shown
notes: Human IgG1
% 43Ea binding [1]: 77%
EC50 [2]: 0.41 nM
EC50 [3]: 0.17 nM
EC50 [4]: 0.32 nM
% GM-CSF, 2.56 nM antibody, MDA-MB-231 cells + FVIIa [5]: 27%
% GM-CSF, 6.4 nM antibody, MDA-MB-231 cells + FVIIa [5]: 8%
% GM-CSF, 16 nM antibody, MDA-MB-231 cells + FVIIa [5]: 6%
% GM-CSF, 40 nM antibody, MDA-MB-231 cells + FVIIa [5]: 6%
% GM-CSF, 100 nM antibody, MDA-MB-231 cells + FVIIa [5]: 6%
% 25A binding [6]: 95%

B10: anti-TF antibody 29E (antibody, human IgG1, V domains shown)
VH: QVQLVESGGGVVQPGRSLRLSCAASGFTFRSYGMHWVRQAPGKGLEWVAVITYDGINKYYADSVEGRFTISRDNSKNTLYLQMNSLRAEDTAVYYCARDGVYYGVYDYWGQGTLVTVSS
VL: not shown
notes: Human IgG1
% 43Ea binding [1]: 85%
EC50 [2]: 0.98 nM
EC50 [3]: 0.53 nM
EC50 [4]: 0.68 nM
% GM-CSF, 2.56 nM antibody, MDA-MB-231 cells + FVIIa [5]: 33%
% GM-CSF, 6.4 nM antibody, MDA-MB-231 cells + FVIIa [5]: 9%
% GM-CSF, 16 nM antibody, MDA-MB-231 cells + FVIIa [5]: 5%
% GM-CSF, 40 nM antibody, MDA-MB-231 cells + FVIIa [5]: 6%
% GM-CSF, 100 nM antibody, MDA-MB-231 cells + FVIIa [5]: 6%
% 25A binding [6]: 96%
